Laboratory results published in paper PMC9240080 (Nature Communications, 2022).

Assays:
Assay in all cases: ELISA
Details in all cases: both partners purified
[1] = target: RaTG13-CoV RBD-His8-SpyTag003 (Bat coronavirus RaTG13, heterogeneous N-linked glycosylation)
[2] = target: SHC014-CoV RBD-His8-SpyTag003 (Bat SARS-like coronavirus RsSHC014, heterogeneous N-linked glycosylation)
[3] = target: Rs4081-CoV RBD-His8-SpyTag003 (Bat SARS-like coronavirus Rs4081, heterogeneous N-linked glycosylation)
[4] = target: pangolin17 (pang17)-CoV RBD-His8-SpyTag003 (Pangolin coronavirus pang17, heterogeneous N-linked glycosylation)
[5] = target: RmYN02-CoV RBD-His8-SpyTag003 (Bat coronavirus RmYN02, heterogeneous N-linked glycosylation)
[6] = target: Rf1-CoV RBD-His8-SpyTag003 (Bat SARS-like coronavirus Rf1, heterogeneous N-linked glycosylation)
[7] = target: WIV1-CoV RBD-His8-SpyTag003 (Bat SARS-like coronavirus WIV1, heterogeneous N-linked glycosylation)
[8] = target: Yunnan2011 (Yun11)-CoV RBD-His8-SpyTag003 (Bat coronavirus Cp/Yunnan2011, heterogeneous N-linked glycosylation)
[9] = target: BM48-31-CoV RBD-His8-SpyTag003 (Bat coronavirus BM48-31, heterogeneous N-linked glycosylation)
[10] = target: BtKY72-CoV RBD-His8-SpyTag003 (Bat coronavirus BtKY72, heterogeneous N-linked glycosylation)

Measured: binding result

B1: EY6A (antibody, V domains shown)
VH: EVQLVESGGGVVQPGRSLRLSCAASAFTFSSYDMHWVRQAPGKGLEWVAVISYDGSNKYYADSVKGRFTISRDNSKNTLYLQMNSLRAEDTAVYYCAKDGGKLWVYYFDYWGQGTLVTVSS
VL: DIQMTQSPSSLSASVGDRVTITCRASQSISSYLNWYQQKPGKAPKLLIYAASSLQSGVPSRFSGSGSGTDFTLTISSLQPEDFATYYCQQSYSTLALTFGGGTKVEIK
binds: all assays above
